{
  "source": "paper PMC9915769",
  "about": "“A novel binding site on the cryptic intervening domain is a motif-dependent regulator of O-GlcNAc transferase” (Research Square, 2023)",
  "key": {"OGT F723E": {"tested_on": "OGT F723E", "experiment": "Saturation FP binding assay, OGT mutant F723E", "set-up": "species or system Human", "conditions": "5-FAM-SMG9 0.4 μM stock mixed 1:1, TBS pH 8.0, n=3", "description": "(§1) To confirm the SMG9 peptide binding mode in our crystal structure, we mutated each of the two primary binding features: the hydrophobic pocket (F723, I734, and I787) and the bidentate donor N791, and measured their changes in binding affinity for SMG9 peptide. Each of the hydrophobic OGT residues were mutated to a glutamate or arginine, while the asparagine bidentate interaction was disrupted by mutation to alanine. Each mutated OGT construct was recombinantly expressed in E coli and purified at high concentration for FP saturation binding assays with fluorescent SMG9 peptide. Insertion of charged residues into the hydrophobic pocket (F723E, I734R, I787E, and I787R) as well as disruption of the bidentate backbone interaction (N791 A) each shifted EC50 values by >10-fold (Fig. 2d, Extended data Fig. 3a), showing that these mutations substantially disrupt SMG9 peptide binding.\n(§2) All FP measurements were carried out in black small volume 384-well plates (Greiner Bio-One). For saturation binding assays, 2-fold serial dilutions of recombinantly purified OGT were prepared in TBS (150 mM NaCl, 20 mM Tris-HCl, pH 8.0). 5-FAM-SMG9 fluorescent peptide at 0.4 μM in TBS was added in equal volume to the OGT dilution series. […] After 20 min incubation in the dark at room temperature, FP was read on a BMG PheraStar multimode plate reader equipt with 488, 520, 520 FP filter cube (BMG Labtech)."}, "OGT I734R": {"tested_on": "OGT I734R", "experiment": "Saturation FP binding assay, OGT mutant I734R", "set-up": "species or system Human", "conditions": "5-FAM-SMG9 0.4 μM stock mixed 1:1, TBS pH 8.0, n=3", "description": "as §1, §2"}, "OGT I787E": {"tested_on": "OGT I787E", "experiment": "Saturation FP binding assay, OGT mutant I787E", "set-up": "species or system Human", "conditions": "5-FAM-SMG9 0.4 μM stock mixed 1:1, TBS pH 8.0, n=3", "description": "as §1, §2"}, "OGT I787R": {"tested_on": "OGT I787R", "experiment": "Saturation FP binding assay, OGT mutant I787R", "set-up": "species or system Human", "conditions": "5-FAM-SMG9 0.4 μM stock mixed 1:1, TBS pH 8.0, n=3", "description": "as §1, §2"}, "OGT N791A": {"tested_on": "OGT N791A", "experiment": "Saturation FP binding assay, OGT mutant N791A", "set-up": "species or system Human", "conditions": "5-FAM-SMG9 0.4 μM stock mixed 1:1, TBS pH 8.0, n=3", "description": "as §1, §2"}, "[1]": {"molecular_target": "fluorescently labeled 5-FAM-SMG9 peptide (human) (UniProt Q9H0W8)", "experiment": "fluorescence polarisation; saturation: 2-fold serial dilutions of OGT (WT or mutant) plus equal volume of 0.4 uM 5-FAM-SMG9; TBS (150 mM NaCl, 20 mM Tris-HCl, pH 8.0); 20 min, room temperature"}, "OGT": {"molecular_target": "T1, OGT (Homo sapiens, UniProt O15294)", "T1 construct": "two OGT constructs, full-length OGT (OGT) and the protein crystallization construct OGT4.5; His6 (N); made in house; host or cells: E. coli BL21(DE3)", "T1 sequence (O15294 1-1046)": "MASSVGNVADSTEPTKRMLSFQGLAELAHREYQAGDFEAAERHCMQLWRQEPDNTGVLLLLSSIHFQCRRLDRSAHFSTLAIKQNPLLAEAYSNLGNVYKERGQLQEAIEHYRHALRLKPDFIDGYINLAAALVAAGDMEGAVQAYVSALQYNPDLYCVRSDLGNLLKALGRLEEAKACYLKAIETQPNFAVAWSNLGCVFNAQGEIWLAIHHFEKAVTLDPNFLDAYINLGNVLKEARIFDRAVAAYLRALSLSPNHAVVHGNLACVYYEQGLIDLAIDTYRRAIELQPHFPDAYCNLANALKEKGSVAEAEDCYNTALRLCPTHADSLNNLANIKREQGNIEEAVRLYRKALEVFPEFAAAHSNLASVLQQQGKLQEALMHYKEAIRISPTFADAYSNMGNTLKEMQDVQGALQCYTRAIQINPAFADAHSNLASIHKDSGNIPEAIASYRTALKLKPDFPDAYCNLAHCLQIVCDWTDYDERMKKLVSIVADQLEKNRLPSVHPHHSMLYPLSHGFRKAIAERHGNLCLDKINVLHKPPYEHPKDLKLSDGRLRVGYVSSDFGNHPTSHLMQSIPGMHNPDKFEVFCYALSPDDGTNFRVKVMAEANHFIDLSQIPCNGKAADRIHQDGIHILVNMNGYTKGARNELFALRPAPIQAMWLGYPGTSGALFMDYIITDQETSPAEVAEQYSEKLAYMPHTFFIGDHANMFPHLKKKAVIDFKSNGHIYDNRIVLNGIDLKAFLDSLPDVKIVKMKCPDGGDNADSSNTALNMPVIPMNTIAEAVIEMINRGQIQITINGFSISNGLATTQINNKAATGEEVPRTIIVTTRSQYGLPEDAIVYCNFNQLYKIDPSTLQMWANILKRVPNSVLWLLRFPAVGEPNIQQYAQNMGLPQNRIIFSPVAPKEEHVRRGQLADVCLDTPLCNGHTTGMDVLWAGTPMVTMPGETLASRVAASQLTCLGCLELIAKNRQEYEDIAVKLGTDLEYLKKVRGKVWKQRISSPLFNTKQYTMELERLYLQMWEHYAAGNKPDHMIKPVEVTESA", "experiment": "Competitive fluorescence polarization (FP) binding assay with 5-FAM-SMG9 peptide", "conditions": "FP competition with 5-FAM-SMG9 for OGT binding, TBS pH 8.0, n=3", "description": "All FP measurements were carried out in black small volume 384-well plates (Greiner Bio-One). For saturation binding assays, 2-fold serial dilutions of recombinantly purified OGT were prepared in TBS (150 mM NaCl, 20 mM Tris-HCl, pH 8.0). 5-FAM-SMG9 fluorescent peptide at 0.4 μM in TBS was added in equal volume to the OGT dilution series. For competition binding assays, 2-fold serial dilutions of unlabeled peptide were prepared in TBS. An equal volume of 20 μM OGT with 0.4 μM 5-FAM-SMG9 in TBS was added to the dilution series. After 20 min incubation in the dark at room temperature, FP was read on a BMG PheraStar multimode plate reader equipt with 488, 520, 520 FP filter cube (BMG Labtech)."}, "[2]": {"molecular_target": "T2, full-length O-GlcNAc transferase (OGT), recombinant (human, UniProt O15294-3 1-1036)", "T2 chain": "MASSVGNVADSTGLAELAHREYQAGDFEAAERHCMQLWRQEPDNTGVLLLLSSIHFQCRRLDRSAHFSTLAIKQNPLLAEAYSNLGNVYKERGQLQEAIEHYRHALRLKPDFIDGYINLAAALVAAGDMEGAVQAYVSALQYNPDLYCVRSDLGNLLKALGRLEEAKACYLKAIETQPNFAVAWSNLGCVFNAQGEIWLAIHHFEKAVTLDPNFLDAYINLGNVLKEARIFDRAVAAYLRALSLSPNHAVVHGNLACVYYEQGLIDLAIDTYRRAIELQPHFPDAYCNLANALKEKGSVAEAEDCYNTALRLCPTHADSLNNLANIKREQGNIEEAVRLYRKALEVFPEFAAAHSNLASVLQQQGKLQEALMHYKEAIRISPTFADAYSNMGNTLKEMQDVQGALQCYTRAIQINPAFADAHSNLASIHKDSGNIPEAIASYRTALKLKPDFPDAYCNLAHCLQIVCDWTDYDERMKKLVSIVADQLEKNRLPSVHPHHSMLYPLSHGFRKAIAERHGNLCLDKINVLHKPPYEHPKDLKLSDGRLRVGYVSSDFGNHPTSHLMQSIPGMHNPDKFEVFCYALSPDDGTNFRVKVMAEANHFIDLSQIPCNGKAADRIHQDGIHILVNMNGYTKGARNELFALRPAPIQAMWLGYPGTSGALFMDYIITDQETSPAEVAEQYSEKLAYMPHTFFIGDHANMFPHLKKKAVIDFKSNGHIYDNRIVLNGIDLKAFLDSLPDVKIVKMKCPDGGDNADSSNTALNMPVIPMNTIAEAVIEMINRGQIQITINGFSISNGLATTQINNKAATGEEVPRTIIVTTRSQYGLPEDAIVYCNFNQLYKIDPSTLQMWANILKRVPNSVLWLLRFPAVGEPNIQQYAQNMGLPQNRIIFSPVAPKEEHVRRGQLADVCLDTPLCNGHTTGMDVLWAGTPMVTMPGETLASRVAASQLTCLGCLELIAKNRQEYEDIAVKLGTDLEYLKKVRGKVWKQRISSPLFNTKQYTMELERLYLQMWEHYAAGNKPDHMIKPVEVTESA", "experiment": "MST"}},
  "note": "Non-standard residues stand in square brackets, D forms with d. No end group written: not given here. pY = N[C@@H](Cc1ccc(OP(=O)(O)O)cc1)C(=O)O",
  "data": [
    {"molecule": "5-FAM-SMG9 peptide: fluorescently labeled 5-FAM SMG9 peptide, probe for MST and FP assays (QRPTQPVYQIQNRGMG; not fully specified (N-terminus); also: 5-FAM label, position not given here)", "values": [
      {"measurement": "fold shift in EC50 relative to wild-type OGT", "setting": "OGT F723E", "result": "> 10", "unit": "fold"},
      {"measurement": "fold shift in EC50 relative to wild-type OGT", "setting": "OGT I734R", "result": "> 10", "unit": "fold"},
      {"measurement": "fold shift in EC50 relative to wild-type OGT", "setting": "OGT I787E", "result": "> 10", "unit": "fold"},
      {"measurement": "fold shift in EC50 relative to wild-type OGT", "setting": "OGT I787R", "result": "> 10", "unit": "fold"},
      {"measurement": "fold shift in EC50 relative to wild-type OGT", "setting": "OGT N791A", "result": "> 10", "unit": "fold"}
    ]},
    {"molecule": "OGT F723E, recombinant (enzyme)", "values": [
      {"measurement": "fold shift in EC50 against wild-type OGT", "setting": "[1]", "result": "> 10", "unit": "fold"}
    ]},
    {"molecule": "OGT I734R, recombinant (enzyme)", "values": [
      {"measurement": "fold shift in EC50 against wild-type OGT", "setting": "[1]", "result": "> 10", "unit": "fold"}
    ]},
    {"molecule": "OGT I787E, recombinant (from UniProt O15294-3 1-1036) (enzyme)", "values": [
      {"measurement": "fold shift in EC50 against wild-type OGT", "setting": "[1]", "result": "> 10", "unit": "fold"}
    ]},
    {"molecule": "OGT I787R, recombinant (from UniProt O15294-3 1-1036) (enzyme)", "values": [
      {"measurement": "fold shift in EC50 against wild-type OGT", "setting": "[1]", "result": "> 10", "unit": "fold"}
    ]},
    {"molecule": "OGT N791A, recombinant (enzyme)", "values": [
      {"measurement": "fold shift in EC50 against wild-type OGT", "setting": "[1]", "result": "> 10", "unit": "fold"}
    ]},
    {"molecule": "SMG9 Y147F: SMG9 peptide with Y147F mutation (QRPTQPVFQIQNRGMG)", "values": [
      {"measurement": "fold shift in EC50 relative to WT SMG9 peptide", "setting": "OGT", "result": "> 10", "unit": "fold"}
    ]},
    {"molecule": "SMG9 pY147: phosphorylated SMG9 peptide (pY147) (QRPTQPV[pY]QIQNRGMG)", "values": [
      {"measurement": "peptide binding to OGT (FP competition)", "setting": "OGT", "result": "significantly disrupted peptide binding"}
    ]},
    {"molecule": "QRPTQPVYQIQNRGMG (peptide, UniProt Q9H0W8 140-155, looked up, not fully specified (N-terminus); also: 5-FAM label, position not given here, SMG9, human, 16-mer peptide with the PxYx[I/L] motif, residues 140-155 as stated for the SMG9 peptide; The limits 140-155 are printed for the SMG9 peptide of the crystal; the labelled peptide bears the same name; also called fluorescent SMG9 peptide; source: synthetic peptide (solid phase peptide synthesis, Ontores))", "note": "[fluorescently labeled 5-FAM-SMG9 peptide]", "values": [
      {"measurement": "Kd", "setting": "[2]", "result": 13.1, "unit": "µM"}
    ]}
  ]
}
